Patent US10005829B2, “Synthetic linear apelin mimetics for the treatment of heart failure” (priority 2012, dated 2018)
Each block holds one binder with its values, some of them ahead of it. *1 amine or outer side, *2 acyl side, *3 side chain or, on linkers, in order; H or OH if unused. [ ]: non-standard residue; d: D form. Tyr(Bzl) = L-benzyl-tyrosine, O=C([C@H](Cc1ccc(OCc2ccccc2)cc1)N[*:1])[*:2]; Phe(3,4-Cl2) = N[C@@H](Cc1ccc(Cl)c(Cl)c1)C(=O)O; 2Nal = N[C@@H](Cc1ccc2ccccc2c1)C(=O)O; Cha = N[C@@H](CC1CCCCC1)C(=O)O; pGlu = O=C1CC[C@@H](C(=O)O)N1; dNle = CCCC[C@@H](N)C(=O)O; Nle = CCCC[C@H](N)C(=O)O

Target: T1, APJ receptor (human, UniProt P35414 1-380)
T1 sequence (looked up): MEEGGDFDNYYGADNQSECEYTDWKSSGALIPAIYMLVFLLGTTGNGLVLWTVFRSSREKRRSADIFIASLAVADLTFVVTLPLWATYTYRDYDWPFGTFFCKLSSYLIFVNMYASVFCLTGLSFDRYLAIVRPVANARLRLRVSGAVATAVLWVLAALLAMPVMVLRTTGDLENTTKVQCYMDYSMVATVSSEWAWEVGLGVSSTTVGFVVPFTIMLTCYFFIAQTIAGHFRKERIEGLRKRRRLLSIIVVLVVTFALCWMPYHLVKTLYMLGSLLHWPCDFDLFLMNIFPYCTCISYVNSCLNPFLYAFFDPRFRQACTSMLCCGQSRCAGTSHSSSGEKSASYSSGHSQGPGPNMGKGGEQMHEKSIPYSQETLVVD
Assay: cell-based or functional assay

hAPJ Ca^2+ Flux EC50: 170 nM
B4: pE-R-P-R-L-a-H-K-G-P-nle-e-f-OH (peptide)
peptide: [pGlu]RPRL[dA]HKGP[dNle][dE][dF]-OH
SMILES: CCCC[C@@H](NC(=O)[C@@H]1CCCN1C(=O)CNC(=O)[C@H](CCCCN)NC(=O)[C@H](Cc1c[nH]cn1)NC(=O)[C@@H](C)NC(=O)[C@H](CC(C)C)NC(=O)[C@H](CCCNC(=N)N)NC(=O)[C@@H]1CCCN1C(=O)[C@H](CCCNC(=N)N)NC(=O)[C@@H]1CCC(=O)N1)C(=O)N[C@H](CCC(=O)O)C(=O)N[C@H](Cc1ccccc1)C(=O)O

hAPJ Ca^2+ Flux EC50: 121 nM
B6: pE-R-P-R-Y(Bzl)-a-H-K-G-P-nle-a-f-OH (peptide)
peptide: [pGlu]RPR[Tyr(Bzl)][dA]HKGP[dNle][dA][dF]-OH

hAPJ Ca^2+ Flux EC50: 796 nM
B7: pE-r-P-R-L-a-H-K-G-P-nle-a-f-OH (peptide)
peptide: [pGlu][dR]PRL[dA]HKGP[dNle][dA][dF]-OH

hAPJ Ca^2+ Flux EC50: 99 nM
B9: pE-R-P-R-L-a-H-k-G-P-Nle-a-f-OH (peptide)
peptide: [pGlu]RPRL[dA]H[dK]GP[Nle][dA][dF]-OH

hAPJ Ca^2+ Flux EC50: 114 nM
B12: pE-R-P-R-Y-a-H-K-G-P-nle-a-f-OH (peptide)
peptide: [pGlu]RPRY[dA]HKGP[dNle][dA][dF]-OH
SMILES: CCCC[C@@H](NC(=O)[C@@H]1CCCN1C(=O)CNC(=O)[C@H](CCCCN)NC(=O)[C@H](Cc1c[nH]cn1)NC(=O)[C@@H](C)NC(=O)[C@H](Cc1ccc(O)cc1)NC(=O)[C@H](CCCNC(=N)N)NC(=O)[C@@H]1CCCN1C(=O)[C@H](CCCNC(=N)N)NC(=O)[C@@H]1CCC(=O)N1)C(=O)N[C@H](C)C(=O)N[C@H](Cc1ccccc1)C(=O)O

hAPJ Ca^2+ Flux EC50: 922 nM
B17: pE-R-P-R-L-a-H-K-G-P-nle-r-f-OH (peptide)
peptide: [pGlu]RPRL[dA]HKGP[dNle][dR][dF]-OH
SMILES: CCCC[C@@H](NC(=O)[C@@H]1CCCN1C(=O)CNC(=O)[C@H](CCCCN)NC(=O)[C@H](Cc1c[nH]cn1)NC(=O)[C@@H](C)NC(=O)[C@H](CC(C)C)NC(=O)[C@H](CCCNC(=N)N)NC(=O)[C@@H]1CCCN1C(=O)[C@H](CCCNC(=N)N)NC(=O)[C@@H]1CCC(=O)N1)C(=O)N[C@H](CCCNC(=N)N)C(=O)N[C@H](Cc1ccccc1)C(=O)O

The remaining lines, values behind:

B1: pE-R-P-R-L-a-H-K-G-P-Nle-P-f-OH (peptide)
peptide: ERPRLAHKGPLPF
modifications: pE at 1; D-Ala at 6; Nle (L-norleucine) at 11; D-Phe at 13
hAPJ Ca^2+ Flux EC50: 34.5 nM

B2: pE-R-P-R-L-a-H-K-G-P-nle-a-y-OH (peptide)
peptide: [pGlu]RPRL[dA]HKGP[dNle][dA][dY]-OH
SMILES: CCCC[C@@H](NC(=O)[C@@H]1CCCN1C(=O)CNC(=O)[C@H](CCCCN)NC(=O)[C@H](Cc1c[nH]cn1)NC(=O)[C@@H](C)NC(=O)[C@H](CC(C)C)NC(=O)[C@H](CCCNC(=N)N)NC(=O)[C@@H]1CCCN1C(=O)[C@H](CCCNC(=N)N)NC(=O)[C@@H]1CCC(=O)N1)C(=O)N[C@H](C)C(=O)N[C@H](Cc1ccc(O)cc1)C(=O)O
hAPJ Ca^2+ Flux EC50: 0.9 nM

B3: pE-R-P-R-(2-Nal)-a-H-K-G-P-nle-a-f-OH (peptide)
peptide: [pGlu]RPR[2Nal][dA]HKGP[dNle][dA][dF]-OH
SMILES: CCCC[C@@H](NC(=O)[C@@H]1CCCN1C(=O)CNC(=O)[C@H](CCCCN)NC(=O)[C@H](Cc1c[nH]cn1)NC(=O)[C@@H](C)NC(=O)[C@H](Cc1ccc2ccccc2c1)NC(=O)[C@H](CCCNC(=N)N)NC(=O)[C@@H]1CCCN1C(=O)[C@H](CCCNC(=N)N)NC(=O)[C@@H]1CCC(=O)N1)C(=O)N[C@H](C)C(=O)N[C@H](Cc1ccccc1)C(=O)O
hAPJ Ca^2+ Flux EC50: 69.2 nM

B5: pE-R-P-R-L-a-H-K-G-P-Nle-a-f-OH (peptide)
peptide: [pGlu]RPRL[dA]HKGP[Nle][dA][dF]-OH
hAPJ Ca^2+ Flux EC50: 2.4 nM

B8: pE-R-P-R-L-a-H-K-G-P-Nle-f-OH (peptide)
peptide: ERPRLAHKGPLF
modifications: pE at 1; D-Ala at 6; Nle (L-norleucine) at 11; D-Phe at 12
hAPJ Ca^2+ Flux EC50: 10.7 nM

B10: pE-R-P-R-L-a-H-K-G-P-nle-a-tic-OH (peptide)
peptide: ERPRLAHKGPLAX
modifications: pE at 1; D-Ala at 6; D-Nle at 11; D-Ala at 12; D-Tic at 13
hAPJ Ca^2+ Flux EC50: 1.7 nM

B11: pE-R-P-R-L-a-H-K-G-P-nle-a-d-OH (peptide)
peptide: [pGlu]RPRL[dA]HKGP[dNle][dA][dD]-OH
SMILES: CCCC[C@@H](NC(=O)[C@@H]1CCCN1C(=O)CNC(=O)[C@H](CCCCN)NC(=O)[C@H](Cc1c[nH]cn1)NC(=O)[C@@H](C)NC(=O)[C@H](CC(C)C)NC(=O)[C@H](CCCNC(=N)N)NC(=O)[C@@H]1CCCN1C(=O)[C@H](CCCNC(=N)N)NC(=O)[C@@H]1CCC(=O)N1)C(=O)N[C@H](C)C(=O)N[C@H](CC(=O)O)C(=O)O
hAPJ Ca^2+ Flux EC50: 86.8 nM

B13: pE-R-P-R-L-a-F-K-G-P-nle-a-f-OH (peptide)
peptide: [pGlu]RPRL[dA]FKGP[dNle][dA][dF]-OH
SMILES: CCCC[C@@H](NC(=O)[C@@H]1CCCN1C(=O)CNC(=O)[C@H](CCCCN)NC(=O)[C@H](Cc1ccccc1)NC(=O)[C@@H](C)NC(=O)[C@H](CC(C)C)NC(=O)[C@H](CCCNC(=N)N)NC(=O)[C@@H]1CCCN1C(=O)[C@H](CCCNC(=N)N)NC(=O)[C@@H]1CCC(=O)N1)C(=O)N[C@H](C)C(=O)N[C@H](Cc1ccccc1)C(=O)O
hAPJ Ca^2+ Flux EC50: 3.1 nM

B14: pE-R-P-R-Cha-a-H-K-G-P-nle-a-f-OH (peptide)
peptide: [pGlu]RPR[Cha][dA]HKGP[dNle][dA][dF]-OH
SMILES: CCCC[C@@H](NC(=O)[C@@H]1CCCN1C(=O)CNC(=O)[C@H](CCCCN)NC(=O)[C@H](Cc1c[nH]cn1)NC(=O)[C@@H](C)NC(=O)[C@H](CC1CCCCC1)NC(=O)[C@H](CCCNC(=N)N)NC(=O)[C@@H]1CCCN1C(=O)[C@H](CCCNC(=N)N)NC(=O)[C@@H]1CCC(=O)N1)C(=O)N[C@H](C)C(=O)N[C@H](Cc1ccccc1)C(=O)O
hAPJ Ca^2+ Flux EC50: 2.8 nM

B15: pE-R-P-R-L-a-H-K-G-P-nle-F-OH (peptide)
peptide: [pGlu]RPRL[dA]HKGP[dNle]F-OH
SMILES: CCCC[C@@H](NC(=O)[C@@H]1CCCN1C(=O)CNC(=O)[C@H](CCCCN)NC(=O)[C@H](Cc1c[nH]cn1)NC(=O)[C@@H](C)NC(=O)[C@H](CC(C)C)NC(=O)[C@H](CCCNC(=N)N)NC(=O)[C@@H]1CCCN1C(=O)[C@H](CCCNC(=N)N)NC(=O)[C@@H]1CCC(=O)N1)C(=O)N[C@@H](Cc1ccccc1)C(=O)O
hAPJ Ca^2+ Flux EC50: 66.5 nM

B16: pE-R-P-R-L-a-H-K-G-P-nle-a-f-NH2 (peptide)
peptide: [pGlu]RPRL[dA]HKGP[dNle][dA][dF]-NH2
hAPJ Ca^2+ Flux EC50: 14.8 nM

B18: pE-R-P-R-(D-Leu)-S-a-K-G-P-nle-a-f-OH (peptide)
peptide: [pGlu]RPR[dL]S[dA]KGP[dNle][dA][dF]-OH
SMILES: CCCC[C@@H](NC(=O)[C@@H]1CCCN1C(=O)CNC(=O)[C@H](CCCCN)NC(=O)[C@@H](C)NC(=O)[C@H](CO)NC(=O)[C@@H](CC(C)C)NC(=O)[C@H](CCCNC(=N)N)NC(=O)[C@@H]1CCCN1C(=O)[C@H](CCCNC(=N)N)NC(=O)[C@@H]1CCC(=O)N1)C(=O)N[C@H](C)C(=O)N[C@H](Cc1ccccc1)C(=O)O
hAPJ Ca^2+ Flux EC50: 386 nM

B19: pE-R-P-R-(3,4-Cl2-F)-a-H-K-G-P-nle-a-f-OH (peptide)
peptide: [pGlu]RPR[Phe(3,4-Cl2)][dA]HKGP[dNle][dA][dF]-OH
SMILES: CCCC[C@@H](NC(=O)[C@@H]1CCCN1C(=O)CNC(=O)[C@H](CCCCN)NC(=O)[C@H](Cc1c[nH]cn1)NC(=O)[C@@H](C)NC(=O)[C@H](Cc1ccc(Cl)c(Cl)c1)NC(=O)[C@H](CCCNC(=N)N)NC(=O)[C@@H]1CCCN1C(=O)[C@H](CCCNC(=N)N)NC(=O)[C@@H]1CCC(=O)N1)C(=O)N[C@H](C)C(=O)N[C@H](Cc1ccccc1)C(=O)O
hAPJ Ca^2+ Flux EC50: 13.8 nM
